Data published in patent US20160108107A1 (INSTITUT NATIONAL DE LA RECHERCHE AGRONOMIQUE INRA, published 2016).

Tests used:
Assay in all cases: indirect ELISA, protein coated, culture supernatant at 1/50
native α-gliadin = target: T1, native α-gliadin
T1 construct: also called non-deamidated α-gliadin
Description: (§1) 100 μl of proteins at 1 μg/ml in 50 mM carbonate buffer, pH 9.6, are incubated overnight at 4° C. at the bottom of a 96-well, bottom, plate (Nunc, Maxisorb). After 3 washes with PBS-0.05% Tween 20, an incubation with PBS-2% (w/v) milk is carried out. The PEE 14C7 monoclonal antibody (100 μl of various dilutions of antibody in PBS-0.1% (w/v) milk) is incubated for 1 h at ambient temperature. After washes with PBS-0.05% Tween 20, 100 μl of the peroxidase-coupled goat anti-mouse IgG secondary antibody (ref: 170-6516, Bio-Rad) diluted to 1/3000 is incubated for 1 h at ambient temperature under the same conditions as the primary antibody. After 3 washes, the OPD (0-phenylenediamine, ref: P-1526, Sigma) substrate is incubated for 30 min in the dark. The reaction is stopped by adding 50 μl of H2SO₄ 4N. The optical densities are read at dual wavelength (490 nm for measuring the hydrolysis of the substrate and 630 nm for eliminating the background noise) on a plate spectrometer (Bioteck, E1x808-1).
(§2) The percentages of reactivity of the antibody with respect to each protein are determined as described in Tranquet et al. (2012). In the present case, the percentages are determined at the 1/50 dilution of the culture supernatant (i.e. the strongest dilution which makes it possible to obtain the strongest absorbence on the best-recognized protein—deamidated gamma-gliadins). The percentage recognition of a protein X is obtained by calculating the Protein X absorbence/deamidated gamma-gliadin absorbence ratio.

[1] = target: T2, deamidated low-molecular weight glutenin
T2 construct: also called Glut; LMW-D; deam; LMW
Description: as §1, §2

deamidated α-gliadin = target: T3, deamidated α-gliadin
T3 construct: also called α-D; deam. α
Description: as §1, §2

native ω-2 gliadin = target: T4, native ω-2 gliadin
T4 construct: also called non-deamidated ω-2 gliadin
Description: as §1, §2

deamidated ω-2 gliadin = target: T5, deamidated ω-2 gliadin
T5 construct: also called ω2-D; deam. ω2
Description: as §1, §2

[2] = target: non-deamidated native ω-5 gliadin
Description: as §1, §2

[3] = target: T6, native low-molecular-weight glutenin
T6 construct: also called LMW
Description: as §1, §2

[4] = target: T7, native high-molecular-weight glutenin
T7 construct: also called HMW
Description: as §1, §2

native β-gliadin = target: T8, native β-gliadin
T8 construct: also called non-deamidated β-gliadin
Description: as §1, §2

deamidated ω-5 gliadin = target: T9, deamidated ω-5 gliadin
T9 construct: also called ω5-D; deam. ω5
Description: as §1, §2

native γ-gliadin = target: T10, native γ-gliadin
T10 construct: also called non-deamidated γ-gliadin
Description: as §1, §2

percentage of reactivity (Protein X absorbence/deamidated gamma-gliadin absorbence) (native α-gliadin): 1% | percentage of reactivity (Protein X absorbence/deamidated gamma-gliadin absorbence) [1]: 97% | percentage of reactivity (Protein X absorbence/deamidated gamma-gliadin absorbence) (deamidated α-gliadin): 76% | percentage of reactivity (Protein X absorbence/deamidated gamma-gliadin absorbence) (native ω-2 gliadin): 39% | percentage of reactivity (Protein X absorbence/deamidated gamma-gliadin absorbence) (deamidated ω-2 gliadin): 94% | percentage of reactivity (Protein X absorbence/deamidated gamma-gliadin absorbence) [2]: 7% | percentage of reactivity (Protein X absorbence/deamidated gamma-gliadin absorbence) [3]: 26% | percentage of reactivity (Protein X absorbence/deamidated gamma-gliadin absorbence) [4]: 2% | percentage of reactivity (Protein X absorbence/deamidated gamma-gliadin absorbence) (native β-gliadin): 4% | percentage of reactivity (Protein X absorbence/deamidated gamma-gliadin absorbence) (deamidated ω-5 gliadin): 99% | percentage of reactivity (Protein X absorbence/deamidated gamma-gliadin absorbence) (native γ-gliadin): 1%
B1: PEE 14C7 monoclonal antibody (antibody, IgG1, V domains shown)
VH: DVQLQESGPDLVKPSQSLSLTCTVTGYSITSGYSWHWIRQFPGNKLEWMGYIHYSGSTNYNPSLKSRISITRDTSKNQFFLQLNSVTTEDTATYYCASGYFDVWGAGTTVTVSS
VL: DVVMTQTPLSLPVSLGDQASISCRSSQSLVHSNGNTYLHWYLQKPGQSPKLLIYKVSNRFSGVPDRFSGSGSGTDFTLKISRVEAEDLGVYFCSQSTLVPWTFGGGTKLEIK
notes: Used in the assays as hybridoma culture supernatant; also called PEE 14C7 antibody; monoclonal antibody produced by the PEE 14C7 hybridoma
